Reference: patent US20240043515A1 (Chugai, published 2024)
Positions count from the first letter of the chain named. In names and notes the source's numbering stands.

T1: hFcγRIIaH on Jurkat effector cells (human, UniProt P12318 34-317)
T1 sequence (looked up): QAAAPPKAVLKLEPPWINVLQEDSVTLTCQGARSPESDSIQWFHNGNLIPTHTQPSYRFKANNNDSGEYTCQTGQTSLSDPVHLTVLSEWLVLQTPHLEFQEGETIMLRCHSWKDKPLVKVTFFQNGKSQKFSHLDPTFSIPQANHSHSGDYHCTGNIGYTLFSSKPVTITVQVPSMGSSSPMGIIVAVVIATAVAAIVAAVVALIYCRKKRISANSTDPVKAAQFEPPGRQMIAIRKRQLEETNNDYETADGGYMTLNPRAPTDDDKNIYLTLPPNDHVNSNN

T2: human FcγRIIa H extracellular domain (human, UniProt P12318 34-217)
T2 construct: extracellular domain; also called hFcγR IIa H; FcγRIIa allotype H131
T2 sequence (looked up): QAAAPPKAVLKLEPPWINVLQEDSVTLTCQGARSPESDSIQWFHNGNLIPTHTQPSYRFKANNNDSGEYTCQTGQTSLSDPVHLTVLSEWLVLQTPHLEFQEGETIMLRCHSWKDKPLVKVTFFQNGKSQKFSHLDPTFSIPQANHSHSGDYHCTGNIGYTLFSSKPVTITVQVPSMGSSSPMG

T3: human FcγRIIa R extracellular domain (human, UniProt P12318 34-217)
T3 construct: extracellular domain; also called hFcγR IIa R; FcγRIIa allotype R131
T3 sequence (looked up): T2 sequence (looked up) with H134R

T4: human FcγRIIb extracellular domain (human, UniProt P31994 43-217)
T4 construct: extracellular domain; also called hFcγR IIb
T4 sequence (looked up): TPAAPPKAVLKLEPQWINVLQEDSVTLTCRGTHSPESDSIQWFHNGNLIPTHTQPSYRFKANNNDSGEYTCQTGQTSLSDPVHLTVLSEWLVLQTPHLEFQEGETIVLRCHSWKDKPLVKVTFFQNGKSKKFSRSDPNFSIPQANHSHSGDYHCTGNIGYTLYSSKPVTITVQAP

B1: EGL-G1d (H240-G1d/L73-k0) (antibody, human IgG1, kappa)
heavy: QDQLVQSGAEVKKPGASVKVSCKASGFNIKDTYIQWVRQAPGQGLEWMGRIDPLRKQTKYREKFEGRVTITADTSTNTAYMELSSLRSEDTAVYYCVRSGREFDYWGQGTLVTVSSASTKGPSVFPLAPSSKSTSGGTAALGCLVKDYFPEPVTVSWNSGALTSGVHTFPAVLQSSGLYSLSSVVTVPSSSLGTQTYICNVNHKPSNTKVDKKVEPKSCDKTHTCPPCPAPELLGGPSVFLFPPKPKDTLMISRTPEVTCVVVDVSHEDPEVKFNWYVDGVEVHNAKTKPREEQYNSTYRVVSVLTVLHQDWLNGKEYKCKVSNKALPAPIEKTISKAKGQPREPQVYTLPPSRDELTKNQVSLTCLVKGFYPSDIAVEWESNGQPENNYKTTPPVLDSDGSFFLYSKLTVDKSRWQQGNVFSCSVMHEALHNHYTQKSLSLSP
light: DIQMTQSPSSLSASVGDRVTITCRASQDIHKYIAWYQQKPGQAPRLLIQYTSTLQPGVPSRFSGSGSGTDYTFTISSLQPEDIATYYCLQYEQLRTFGGGTKVEIKRTVAAPSVFIFPPSDEQLKSGTASVVCLLNNFYPREAKVQWKVDNALQSGNSQESVTEQDSKDSTYSLSSTLTLSKADYEKHKVYACEVTHQGLSSPVTKSFNRGEC
notes: Anti-human Epiregulin antibody with a human IgG1 constant region lacking C-terminal Gly-Lys (G1d); also called Gld; anti-hEREG control antibody
B2: EGL-GASDALIE (H240-GASDALIE/L73-k0) (antibody, human IgG1, kappa)
heavy: QDQLVQSGAEVKKPGASVKVSCKASGFNIKDTYIQWVRQAPGQGLEWMGRIDPLRKQTKYREKFEGRVTITADTSTNTAYMELSSLRSEDTAVYYCVRSGREFDYWGQGTLVTVSSASTKGPSVFPLAPSSKSTSGGTAALGCLVKDYFPEPVTVSWNSGALTSGVHTFPAVLQSSGLYSLSSVVTVPSSSLGTQTYICNVNHKPSNTKVDKKVEPKSCDKTHTCPPCPAPELLAGPDVFLFPPKPKDTLMISRTPEVTCVVVDVSHEDPEVKFNWYVDGVEVHNAKTKPREEQYNSTYRVVSVLTVLHQDWLNGKEYKCKVSNKALPLPEEKTISKAKGQPREPQVYTLPPSRDELTKNQVSLTCLVKGFYPSDIAVEWESNGQPENNYKTTPPVLDSDGSFFLYSKLTVDKSRWQQGNVFSCSVMHEALHNHYTQKSLSLSP
light: B1 light
B3: EGL-ART11 (H240-Kn496/L73-k0//H240-H1516/L73-k0) (antibody, human IgG1, kappa)
heavy 1: QDQLVQSGAEVKKPGASVKVSCKASGFNIKDTYIQWVRQAPGQGLEWMGRIDPLRKQTKYREKFEGRVTITADTSTNTAYMELSSLRSEDTAVYYCVRSGREFDYWGQGTLVTVSSASTKGPSVFPLAPSSKSTSGGTAALGCLVKDYFPEPVTVSWNSGALTSGVHTFPAVLQSSGLYSLSSVVTVPSSSLGTQTYICNVNHKPSNTKVDKKVEPKSCDKTHTCPPCPAPEFQWGPMVFLFPPKPKDVLMISRTPEVTCVVVDVSDEEPEVKFNWYVDGVEVHNAKTKPREEQYNATYRVVSVLPVLHQDWLNGKEYKCKVSNKALPAPIEKTISKAKGQPREPQVCTLPPSRDELTKNQVSLWCLVKGFYPSDIAVEWESNGQPENNYKTTPPVLDSDGSFFLYSKLTVDKSRWQQGNVFSCSVMHEALHNHYTQKSLSLSP
heavy 2: QDQLVQSGAEVKKPGASVKVSCKASGFNIKDTYIQWVRQAPGQGLEWMGRIDPLRKQTKYREKFEGRVTITADTSTNTAYMELSSLRSEDTAVYYCVRSGREFDYWGQGTLVTVSSASTKGPSVFPLAPSSKSTSGGTAALGCLVKDYFPEPVTVSWNSGALTSGVHTFPAVLQSSGLYSLSSVVTVPSSSLGTQTYICNVNHKPSNTKVDKKVEPKSCDKTHTCPPCPAPELLGGPSVFLFPPKPKDVLMISRTPEVTCVVVDVSHEEPEVKFNWYVDGVEVHNAKTKPREEQYNATYRVVSVLPVLHQDWLNGKEYKCKVSNDALPAPIEETISKAKGQPREPQVYTLPPSRCELTKNQVSLSCAVKGFYPSDIAVEWESNGQPENNYKTTPPVLDSDGSFFLVSKLTVDKSRWQQGNVFSCSVMHEALHNHYTQKSLSLSP
light: B1 light
notes: Kn496: L234F/L235Q/G236W/S239M/T250V/H268D/D270E/S298A/T307P + Y349C/T366W; H1516: T250V/D270E/S298A/T307P/K326D/K334E + D356C/T366S/L368A/Y407V
B4: EGL-ART1 (H240-Kn125/L73-k0//H240-H1076/L73-k0) (antibody, human IgG1, kappa)
heavy 1: B3 heavy 1 with F233Y, V249T, P306T
heavy 2: B3 heavy 2 with V249T, A297S, P306T, A329M
light: B1 light
notes: Heterodimeric Fc variant of the anti-human Epiregulin IgG1; Kn125: L234Y/L235Q/G236W/S239M/H268D/D270E/S298A + Y349C/T366W; H1076: D270E/K326D/A330M/K334E + D356C/T366S/L368A/Y407V (EU numbering); also called Kn125/H1076
B5: EGL-ART2 (H240-Kn120/L73-k0//H240-H1068/L73-k0) (antibody, human IgG1, kappa)
heavy 1: B3 heavy 1 with F233Y, Q234Y, V249T, E269D, P306T, A326D
heavy 2: B3 heavy 2 with V249T, A297S, P306T, A329K
light: B1 light
notes: Kn120: L234Y/L235Y/G236W/S239M/H268D/S298A/A327D + Y349C/T366W; also called Kn120/H1068
B6: EGL-ART3 (H240-Kn443/L73-k0//H240-H1408/L73-k0) (antibody, human IgG1, kappa)
heavy 1: B3 heavy 1 with V249T, P306T, K325D
heavy 2: B3 heavy 2 with G235A, V249T, P306T
light: B1 light
notes: Kn443: L234F/L235Q/G236W/S239M/H268D/D270E/S298A/K326D + Y349C/T366W; H1408: G236A/D270E/S298A/K326D/K334E + D356C/T366S/L368A/Y407V
B7: EGL-SDALIE (H240-Kn032/L73-k0//H240-H1032/L73-k0) (antibody, human IgG1, kappa)
heavy 1: B2 heavy with A235G, Y348C, T365W
heavy 2: B2 heavy with A235G, D355C, T365S, L367A, Y406V
light: B1 light
notes: S239D/A330L/I332E in both heavy chains; Kn032 with Y349C/T366W, H1032 with D356C/T366S/L368A/Y407V

The binders below were run against hFcγRIIIaV on Jurkat effector cells (human, UniProt P08637 17-254) (assay: cell-based or functional assay).
hFcγRIIIaV on Jurkat effector cells, sequence (P08637 17-254, form in doubt): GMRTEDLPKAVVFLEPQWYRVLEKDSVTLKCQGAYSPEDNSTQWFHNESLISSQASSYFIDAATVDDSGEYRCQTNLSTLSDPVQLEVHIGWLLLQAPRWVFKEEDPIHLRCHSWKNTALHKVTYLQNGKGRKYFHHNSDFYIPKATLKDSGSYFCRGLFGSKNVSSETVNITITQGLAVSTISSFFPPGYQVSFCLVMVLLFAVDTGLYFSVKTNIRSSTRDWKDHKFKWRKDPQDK

Binder | EC50 of reporter gene induction (ADCC Reporter Bioassay, Hepa1-6/hEREG target cells) [ng/mL]
B1 | 46.3
B2 | 2.08
B3 | 0.413
B4 | 0.716
B5 | 1.35
B6 | 1.53
B7 | 1.78

What follows are binders tested against T1, hFcγRIIaH on Jurkat effector cells (assay: cell-based or functional assay).

Binder | EC50 of reporter gene induction (ADCP Reporter Bioassay, Hepa1-6/hEREG target cells) [ng/mL]
B2 | 32.4
B3 | 36.7
B4 | 35.3
B5 | 21.8
B6 | 15.8

These binders were tested against T5, human FcγRIa extracellular domain (human, UniProt P12314 16-292) (assay: SPR; KD of G1d divided by KD of this antibody).
T5 construct: extracellular domain; also called hFcγR Ia
T5 sequence (P12314 16-292): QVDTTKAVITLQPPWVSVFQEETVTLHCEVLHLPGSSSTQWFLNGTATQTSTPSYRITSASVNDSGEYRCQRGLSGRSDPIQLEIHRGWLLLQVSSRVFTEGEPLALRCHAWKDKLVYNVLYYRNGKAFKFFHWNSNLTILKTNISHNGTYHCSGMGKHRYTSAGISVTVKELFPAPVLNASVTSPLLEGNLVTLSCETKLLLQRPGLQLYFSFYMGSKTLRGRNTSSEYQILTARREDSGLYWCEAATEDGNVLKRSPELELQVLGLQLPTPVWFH
Protocol: (§1) The extracellular domains of FcγRs were produced by the method described in WO2014104165. The interaction between the produced antibodies and human FcγRs was analyzed using Biacore 8K+ by the method below. For the running buffer, 50 mM Na-Phosphate, 150 mM NaCl, and 0.05% Tween20 (pH 7.4) was used, and measurement was performed at 25° C. The sensor chip used was a Series S SA chip (GE Healthcare) onto which CaptureSelect Human Fab-kappa Kinetics Biotin Conjugate (Thermo Fisher Scientific) was immobilized. An antibody of interest was captured onto this chip, and each FcγR diluted with the running buffer was allowed to interact with it. The chip was regenerated using 10 mM Glycine-HCl (pH 1.5), and repeatedly used to capture antibodies and perform measurement. The dissociation constants KD (mol/L) of each antibody for FcγRs were calculated using Biacore Insight Evaluation Software, with a steady state affinity model for the dissociation constant for FcγRIIb and a 1:1 Langmuir binding model for the dissociation constants for the other FcγRs (Table 2).

Binder | Relative value to KD between G1d and hFcgRs [times]
B1 | 1
B2 | 21.3
B3 | 2.4
B4 | 3
B5 | 3.4
B6 | 0.5
B7 | 54.3

These binders were tested against T2, human FcγRIIa H extracellular domain (assay: SPR; KD of G1d divided by KD of this antibody).
Protocol: as §1

Binder | Relative value to KD between G1d and hFcgRs [times]
B1 | 1
B2 | 6.9
B3 | 4.9
B4 | 4.3
B5 | 14.7
B6 | 32.1
B7 | 1

The binders below were run against T3, human FcγRIIa R extracellular domain (assay: SPR; KD of G1d divided by KD of this antibody).
Protocol: as §1

Binder | Relative value to KD between G1d and hFcgRs [times]
B1 | 1
B2 | 10.3
B3 | 1.3
B4 | 1.6
B5 | 49
B6 | 13.7
B7 | 1.8

These binders were tested against T4, human FcγRIIb extracellular domain (assay: SPR; KD of G1d divided by KD of this antibody).
Protocol: as §1

Binder | Relative value to KD between G1d and hFcgRs [times]
B1 | 1
B2 | 3.8
B3 | 0.7
B4 | 0.8
B5 | 22.8
B6 | 1.6
B7 | 3.9

These binders were tested against T6, human FcγRIIIa F extracellular domain (human, UniProt P08637 17-208) (assay: SPR; KD of G1d divided by KD of this antibody).
T6 construct: extracellular domain; also called hFcγR IIIa F; FcγRIIIa allotype F158
T6 sequence (P08637 17-208): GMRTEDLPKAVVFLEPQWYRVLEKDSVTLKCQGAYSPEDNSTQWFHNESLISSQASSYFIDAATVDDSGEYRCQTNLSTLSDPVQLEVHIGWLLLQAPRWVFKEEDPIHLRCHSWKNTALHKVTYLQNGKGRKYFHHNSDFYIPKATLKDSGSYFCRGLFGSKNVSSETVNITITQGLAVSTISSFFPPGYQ
Protocol: as §1

Binder | Relative value to KD between G1d and hFcgRs [times]
B1 | 1
B2 | 99.1
B3 | 141
B4 | 1170
B5 | 460
B6 | 185
B7 | 113

Each binder was assayed against T7, human FcγRIIIa V extracellular domain (human, UniProt P08637 17-208) (assay: SPR; KD of G1d divided by KD of this antibody).
T7 construct: extracellular domain; also called hFcγR IIIa V; FcγRIIIa allotype V158
T7 sequence (P08637 17-208 F176V): as the sequence (P08637 17-208) above, with F160V counted along it
Protocol: as §1

Binder | Relative value to KD between G1d and hFcgRs [times]
B3 | 97.5
B4 | 323
B5 | 215
B6 | 114
B7 | 36.8

Each binder was assayed against T2, human FcγRIIa H extracellular domain (assay: SPR; KD for hFcγRIIb divided by KD for this FcγR).
Protocol: as §1

Binder | A/I ratio (KD for FcγRIIb divided by KD for each FcγR) [ratio]
B1 | 8.9
B2 | 16.5
B3 | 63.3
B4 | 47.4
B5 | 5.8
B6 | 181
B7 | 2.2

Each binder was assayed against T3, human FcγRIIa R extracellular domain (assay: SPR; KD for hFcγRIIb divided by KD for this FcγR).
Protocol: as §1

Binder | A/I ratio (KD for FcγRIIb divided by KD for each FcγR) [ratio]
B1 | 6.1
B2 | 16.5
B3 | 11.5
B4 | 12.4
B5 | 13
B6 | 52.4
B7 | 2.8

These binders were tested against T6, human FcγRIIIa F extracellular domain (assay: SPR; KD for hFcγRIIb divided by KD for this FcγR).
Protocol: as §1

Binder | A/I ratio (KD for FcγRIIb divided by KD for each FcγR) [ratio]
B1 | 3.4
B2 | 89.3
B3 | 694
B4 | 4950
B5 | 68.4
B6 | 396
B7 | 98.7

The binders below were run against T7, human FcγRIIIa V extracellular domain (assay: SPR; KD for hFcγRIIb divided by KD for this FcγR).
Protocol: as §1

Binder | A/I ratio (KD for FcγRIIb divided by KD for each FcγR) [ratio]
B3 | 3970
B4 | 11300
B5 | 264
B6 | 2000
B7 | 266
